This series concerns the target HopU1 (Pseudomonas syringae, UniProt Q88A91 1-264). Briefly: MST. Conditions: protein: recombinant; tags: C-terminal His6 (pET22b NdeI/XhoI, Ni-NTA; tag position implied by vector).

B1: H2 RNA aptamer (structured_RNA)
RNA: GCCACCAACGACAUUACGCAUUGCUUCUAAAGGGUGUGCCGUUGAUAUAAAUAGUGCCCAU
As to B1, the Kd (in general, a measure of binding affinity in units of concentration) worked out at 6.41 ± 0.48 nM.

B2: H1 RNA aptamer (structured_RNA)
RNA: GCCACCAACGACAUUUUGUCAAUCUGUAGAAAAAAUCAGGGUUGAUAUAAAUAGUGCCCAU
For the molecule B2, the dissociation constant Kd came out at 6.71 ± 0.69 nM.

For the origin of these results see article PMC10705891.
